In patent EP1161455B1:

How the values were obtained:
[1] = target: HIV-1 Env (LAV) (HIV-1 (LAV)) (UniProt P03377); experiment: cell-based or functional assay
[2] = target: HIV-1 wildtype (WT) SF162 Env (HIV-1 (SF162)) (UniProt P19550); experiment: cell-based or functional assay

Row | % control, Standard Assay (target cells with CXCR4 and CD4, no sCD4); 17b 0.1 µg/ml [1] [% control] | % control, Standard Assay (target cells with CXCR4 and CD4, no sCD4); 17b 0.5 µg/ml [1] [% control] | % control, Standard Assay (target cells with CXCR4 and CD4, no sCD4); 17b 1 µg/ml [1] [% control] | % control, Standard Assay (target cells with CXCR4 and CD4, no sCD4); 17b 5 µg/ml [1] [% control] | % control, sCD4 Assay (target cells with CXCR4 alone, sCD4 200 nM added); 17b 0.1 µg/ml [1] [% control] | % control, sCD4 Assay (target cells with CXCR4 alone, sCD4 200 nM added); 17b 0.5 µg/ml [1] [% control] | % control, sCD4 Assay (target cells with CXCR4 alone, sCD4 200 nM added); 17b 1 µg/ml [1] [% control] | % control, sCD4 Assay (target cells with CXCR4 alone, sCD4 200 nM added); 17b 5 µg/ml [1] [% control] | β-gal, Standard Assay (target cells with CXCR4 and CD4, no sCD4); 17b 0.1 µg/ml; no MAb 42.3 [1] | β-gal, Standard Assay (target cells with CXCR4 and CD4, no sCD4); 17b 0.5 µg/ml [1] | β-gal, Standard Assay (target cells with CXCR4 and CD4, no sCD4); 17b 1 µg/ml [1] | β-gal, Standard Assay (target cells with CXCR4 and CD4, no sCD4); 17b 5 µg/ml [1] | β-gal, sCD4 Assay (target cells with CXCR4 alone, sCD4 200 nM added); 17b 0.1 µg/ml; no MAb 11.89 [1] | β-gal, sCD4 Assay (target cells with CXCR4 alone, sCD4 200 nM added); 17b 0.5 µg/ml [1] | β-gal, sCD4 Assay (target cells with CXCR4 alone, sCD4 200 nM added); 17b 1 µg/ml [1] | β-gal, sCD4 Assay (target cells with CXCR4 alone, sCD4 200 nM added); 17b 5 µg/ml [1] | Substance | Total β-gal, WT Env (SF162), duplicate 1; effector cells with Env, target cells with CCR5 and no CD4; + sCD4 (100 nM) [2] | Total β-gal, WT Env (SF162), mean; + sCD4 (100 nM); 0.45 without sCD4 [2]
1 | 93.4 | 104 | 94.1 | 119 | 114 | 39.2 | 14.1 | 0 | 39.5 | 43.9 | 39.8 | 50.5 | 13.6 | 4.66 | 1.68 | 0 | MAb 17b (antibody) | – | –
2 | – | – | – | – | – | – | – | – | – | – | – | – | – | – | – | – | soluble CD4 (from UniProt P01730 26-208) (receptor) | 6.6 | 5.9
